# Laboratory results published in US11160869B2 (priority 2019, dated 2021).
# B1: IL-10 delivery construct: recombinant homodimeric fusion protein: N-terminal methionine, cholix386 domain, polyGlySer spacer, recombinant human IL-10 (protein)
# chain: MVEEALNIFDECRSPCSLTPEPGKPIQSKLSIPSDVVLDEGVLYYSMTINDEQNDIKDEDKGESIITIGEFATVRATRHYVNQDAPFGVIHLDITTENGTKTYSYNRKEGEFAINWLVPIGEDSPASIKISVDELDQQRNIIEVPKLYSIDLDNQTLEQWKTQGNVSFSVTRPEHNIAISWPSVSYKAAQKEGSRHKRWAHWHTGLALCWLVPMDAIYNYITQQNCTLGDNWFGGSYETVAGTPKVITVKQGIEQKPVEQRIHFSKGNAMSALAAHRVCGVPLETLARSRKPRDLTDDLSCAYQAQNIVSLFVATRILFSHLDSVFTLNLDEQEPEVAERLSDLRRINENNPGMVTQVLTVARQIYNDYVTHHPGLTPEQTSAGAQAGGGGSGGGGSGGGGSPGQGTQSENSCTHFPGNLPNMLRDLRDAFSRVKTFFQMKDQLDNLLLKESLLEDFKGYLGCQALSEMIQFYLEEVMPQAENQDPDIKAHVNSLGENLKTLRLRLRRCHRFLPCENKSKAVEQVKNAFNKLQEKGIYKAMSEFDIFINYIEAYMTMKIRN
# modifications: homodimer
# What was measured:
# [1] = Intracolonic spray in NHP: IL-1Ra, pSTAT3, construct and IL-10 in tissue and serum; format: in vivo, cynomolgus monkeys
# Excerpt: This was achieved using a colonoscope with an associated spray nozzle. In this way, refined information for onset and duration of IL-1Ra induction could be obtained at specific local doses. […] The variability of pSTAT3/total STAT3 detected was consistent with tissue capture and stability challenges in this in vivo model. Measurement of tissue delivery construct levels had similar tissue capture and stability challenges, showing low and variable amounts in the tissue samples collected (FIG. 143). […] Since IL-10 can induce cells to produce more IL-10, we also looked for induced IL-10. […] It is important to note, due to the similarity of human and NHP IL-10, that ELISA values shown could also include hIL-10 that has somehow separated from the carrier domain of the delivery construct molecule. While this cannot be ruled out, no other data supports this as an outcome and it appears likely that the majority, if not all, tissue and serum IL-10 measured represents an NHP source.
# [2] = Single oral capsule dose in NHP: plasma total IL-10; format: in vivo, Macaca fascicularis; conditions: for plasma total IL-10 Tmax: oral
# Excerpt: IL-10 delivery constructs (SEQ ID NO: 5) and caffeine were filled by weight into size-1 Capsugel V-Cap Hydroxypropyl Methylcellulose (HPMC) capsules, for oral administration. The capsules were then successively coated in a pan spray coater with three layers of polymers. The first and third layer were thin coatings of HPMC, the first to seal the crease where the capsule shells come together, and the third to minimize sticking of the capsules to each other. The second coating layer was comprised of a 50:50 mixture of Eudragit® (Evonik Industries AG) enteric acrylic polymers FS 30 D and L 30 D-55, designed to dissolve and allow the capsule to open at pH 6.5.
# The MSD Small Spot IL-10 plate was washed 3 times with PBST before use. Standards were prepared in Diluent 2 (MSD Cat No R51BB), and samples diluted 2-fold in Diluent 2. Standards and diluted samples were added to the assay plate and the plate incubated for 2 hours at room temperature with shaking. The plate was washed 3 times with PBST and 1× SULFO TAG anti-huIL-10. Antibody was added to the plate before incubation for 1 hour at room temperature with shaking. Following a wash step, 2×MSD Read buffer was added to the wells of the plate and the plate is read in the MSD Sector Imager 600 plate reader. The lower limit of detection of each analyte is defined as 2.5 standard deviation above background.
# IL-10 delivery construct dosing at multiple fixed doses in non-naïve adult male Macaca fascicularis was conducted by Valley Biosystems (West Sacramento, Calif.). […] Dosing groups are described in TABLE 45.
# Animals were fasted until after the 3 hour blood sample collection, when food was given. For dosing, the animals were manually restrained and a bite block placed between the jaws. A pill gun containing the dosing capsule was inserted into the back of the oral cavity and the capsule released. Up to 4 capsules were administered consecutively and a small amount of water given to induce swallowing. Once the administration of the dose was confirmed, the bite block was removed and the head released.
# Blood samples were collected in K2EDTA tubes from each animal pre-dose and at 0.5, 1, 2, 3, 4, 5, 6, 7, 8, and 24 hours post-dose. Animals were returned to home cages following the 2-hour sample collection. Following physical restraint, blood samples were collected via direct venous puncture using a cephalic, femoral or saphenous vein, which were processed to plasma and stored frozen at −60° C. until shipment.
molecule,measurement,setting,value
B1,serum levels of IL-10,[1],increased in a dose-dependent manner
same,serum levels of the delivery construct,"[1]; 1, 3, or 10 mg colonic spray",below the assay detection limit
same,time to reach the lamina propria following luminal application,"[1]; cynomolgus monkey, in vivo",~15 min
same,tissue IL-10 levels,[1]; within 15 min after spray,dose-dependent and transient increases
same,plasma total IL-10 Tmax,[2]; 1 mg,4 h
same,plasma total IL-10 Tmax,[2]; 4 mg,3 h
same,plasma total IL-10 Tmax,[2]; 20.5 mg,2 h
same,plasma total IL-10 Tmax,[2]; 82 mg,2 h
same,time at which plasma total IL-10 had returned to baseline,[2]; all doses,6 hours post-dose
